Reference: article doi:10.1101/2022.08.03.502687 (bioRxiv, 2022)

B1: CLC-ec1 'WT' background (C85A/H234C) treated with glutaraldehyde (natural protein)
chain: MKTDTPSLETPQAARLRRRQLIRQLLERDKTPLAILFMAAVVGTLVGLAAVAFDKGVAWLQNQRMGALVHTADNYPLLLTVAFLASAVLAMFGYFLVRKYAPEAGGSGIPEIEGALEDQRPVRWWRVLPVKFFGGLGTLGGGMVLGREGPTVQIGGNIGRMVLDIFRLKGDEARHTLLATGAAAGLAAAFNAPLAGILFIIEEMRPQFRYTLISIKAVFIGVIMSTIMYRIFNCEVALIDVGKLSDAPLNTLWLYLILGIIFGIFGPIFNKWVLGMQDLLHRVHGGNITKWVLMGGAIGGLCGLLGFVAPATSGGGFNLIPIATAGNFSMGMLVFIFVARVITTLLCFSSGAPGGIFAPMLALGTVLGTAFGMVAVELFPQYHLEAGTFAIAGMGALLAASIRAPLTGIILVLEMTDNYQLILPMIITGLGATLLAQFTGGKPLYSAILARTLAKQEAEQLARSKAASASENT
modifications: Cy5-maleimide on H234C; cross-linked with glutaraldehyde (residues not stated)
B2: CLC-ec1 R230C/L249C on the 'WT' background (C85A/H234C), disulfide cross-linked (natural protein)
chain: MKTDTPSLETPQAARLRRRQLIRQLLERDKTPLAILFMAAVVGTLVGLAAVAFDKGVAWLQNQRMGALVHTADNYPLLLTVAFLASAVLAMFGYFLVRKYAPEAGGSGIPEIEGALEDQRPVRWWRVLPVKFFGGLGTLGGGMVLGREGPTVQIGGNIGRMVLDIFRLKGDEARHTLLATGAAAGLAAAFNAPLAGILFIIEEMRPQFRYTLISIKAVFIGVIMSTIMYCIFNCEVALIDVGKLSDAPCNTLWLYLILGIIFGIFGPIFNKWVLGMQDLLHRVHGGNITKWVLMGGAIGGLCGLLGFVAPATSGGGFNLIPIATAGNFSMGMLVFIFVARVITTLLCFSSGAPGGIFAPMLALGTVLGTAFGMVAVELFPQYHLEAGTFAIAGMGALLAASIRAPLTGIILVLEMTDNYQLILPMIITGLGATLLAQFTGGKPLYSAILARTLAKQEAEQLARSKAASASENT

Molecular target: the molecule itself
Test: single-molecule photobleaching subunit capture

Protein | binding result
B1 | binds
B2 | binds
